Laboratory results reported in patent US20030166536A1.
Values belong to the substance of their own block, whether it stands above or below them.

Assays:
Experiment in all cases: cell-based or functional assay
[1] = target: human A1/A3-C1-C2 dimer of factor VIIIa (human) (UniProt P00451)
[2] = target: porcine A1/A3-C1-C2 dimer of factor VIIIa (porcine) (UniProt P12263)
[3] = target: HP8, hybrid human/porcine B-domainless factor VIII, porcine substitution 373-483 (human; porcine) (UniProt P00451)
[4] = target: human B-domainless factor VIII P492 → A (human) (UniProt P00451)
[5] = target: human B-domainless factor VIII R489 → A (human) (UniProt P00451)
[6] = target: HP13, hybrid human/porcine B-domainless factor VIII, porcine substitution 484-488 (human; porcine) (UniProt P00451)
[7] = target: human B-domainless factor VIII P485 → A (human) (UniProt P00451)
[8] = target: human B-domainless factor VIII R484 → A (human) (UniProt P00451)
[9] = target: HP6, hybrid human/porcine B-domainless factor VIII, porcine substitution 373-444 (human; porcine) (UniProt P00451)
[10] = target: HP10, hybrid human/porcine B-domainless factor VIII, porcine substitution 373-403 (human; porcine) (UniProt P00451)
[11] = target: human B-domainless factor VIII F501 → A (human) (UniProt P00451)
[12] = target: HP12, hybrid human/porcine B-domainless factor VIII, porcine substitution 489-508 (human; porcine) (UniProt P00451)
[13] = target: human B-domainless factor VIII S488 → A (human) (UniProt P00451)
[14] = target: HP4, hybrid human/porcine B-domainless factor VIII, porcine substitution 373-540 (human; porcine) (UniProt P00451)
[15] = target: B-domainless human factor VIII (human) (UniProt P00451)
[16] = target: human B-domainless factor VIII R490 → A (human) (UniProt P00451)
[17] = target: HP5, hybrid human/porcine B-domainless factor VIII, porcine substitution 373-508 (human; porcine) (UniProt P00451)
[18] = target: human B-domainless factor VIII Y487 → A (human) (UniProt P00451)
[19] = target: human B-domainless factor VIII V495 → A (human) (UniProt P00451)
[20] = target: HP11, hybrid human/porcine B-domainless factor VIII, porcine substitution 404-508 (human; porcine) (UniProt P00451)
[21] = target: human B-domainless factor VIII I508 → A (human) (UniProt P00451)
[22] = target: HP9, hybrid human/porcine B-domainless factor VIII, porcine substitution 484-508 (human; porcine) (UniProt P00451)
[23] = target: HP7, hybrid human/porcine B-domainless factor VIII, porcine substitution 445-508 (human; porcine) (UniProt P00451)

Sequence of human B-domainless factor VIII P485 → A (human) (P00451 other isoform, or with tags, fused parts or gaps): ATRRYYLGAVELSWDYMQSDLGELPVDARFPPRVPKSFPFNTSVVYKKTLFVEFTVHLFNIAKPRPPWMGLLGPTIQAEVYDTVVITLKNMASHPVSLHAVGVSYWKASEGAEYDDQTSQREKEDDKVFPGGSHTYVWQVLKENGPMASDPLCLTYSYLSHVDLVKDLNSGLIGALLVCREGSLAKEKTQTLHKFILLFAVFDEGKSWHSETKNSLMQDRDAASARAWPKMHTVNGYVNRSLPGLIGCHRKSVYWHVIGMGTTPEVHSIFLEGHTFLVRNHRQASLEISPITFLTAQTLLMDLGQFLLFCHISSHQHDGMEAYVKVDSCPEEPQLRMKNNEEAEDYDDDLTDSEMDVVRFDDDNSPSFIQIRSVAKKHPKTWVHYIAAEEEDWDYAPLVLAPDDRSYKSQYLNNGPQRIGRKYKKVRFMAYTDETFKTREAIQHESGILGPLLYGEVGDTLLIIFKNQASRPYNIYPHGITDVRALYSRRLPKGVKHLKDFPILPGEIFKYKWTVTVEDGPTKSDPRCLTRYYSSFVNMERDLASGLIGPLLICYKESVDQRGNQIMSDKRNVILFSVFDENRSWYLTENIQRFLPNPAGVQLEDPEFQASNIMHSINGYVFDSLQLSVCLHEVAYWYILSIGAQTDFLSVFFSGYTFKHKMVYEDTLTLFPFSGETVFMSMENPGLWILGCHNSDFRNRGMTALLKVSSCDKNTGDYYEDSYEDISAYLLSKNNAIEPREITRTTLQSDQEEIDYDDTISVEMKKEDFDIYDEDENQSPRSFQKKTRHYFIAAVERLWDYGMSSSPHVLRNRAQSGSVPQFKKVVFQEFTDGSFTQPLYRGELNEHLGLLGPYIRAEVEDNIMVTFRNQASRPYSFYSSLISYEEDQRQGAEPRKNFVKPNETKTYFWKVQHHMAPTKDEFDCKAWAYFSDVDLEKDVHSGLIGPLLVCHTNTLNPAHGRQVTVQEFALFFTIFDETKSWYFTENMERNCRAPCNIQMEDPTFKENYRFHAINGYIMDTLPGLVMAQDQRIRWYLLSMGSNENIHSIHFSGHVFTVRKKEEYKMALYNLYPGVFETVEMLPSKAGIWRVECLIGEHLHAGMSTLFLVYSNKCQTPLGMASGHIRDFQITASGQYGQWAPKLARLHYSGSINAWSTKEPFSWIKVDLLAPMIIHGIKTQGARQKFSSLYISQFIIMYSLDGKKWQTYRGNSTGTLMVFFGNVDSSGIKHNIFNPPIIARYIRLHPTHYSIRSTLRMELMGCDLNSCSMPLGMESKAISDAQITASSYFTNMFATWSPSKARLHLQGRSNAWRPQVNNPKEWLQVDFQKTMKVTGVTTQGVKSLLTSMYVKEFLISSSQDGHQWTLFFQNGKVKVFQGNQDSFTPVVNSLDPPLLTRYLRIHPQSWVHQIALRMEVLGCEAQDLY
Sequence of human B-domainless factor VIII V495 → A (human) (P00451 other isoform, or with tags, fused parts or gaps): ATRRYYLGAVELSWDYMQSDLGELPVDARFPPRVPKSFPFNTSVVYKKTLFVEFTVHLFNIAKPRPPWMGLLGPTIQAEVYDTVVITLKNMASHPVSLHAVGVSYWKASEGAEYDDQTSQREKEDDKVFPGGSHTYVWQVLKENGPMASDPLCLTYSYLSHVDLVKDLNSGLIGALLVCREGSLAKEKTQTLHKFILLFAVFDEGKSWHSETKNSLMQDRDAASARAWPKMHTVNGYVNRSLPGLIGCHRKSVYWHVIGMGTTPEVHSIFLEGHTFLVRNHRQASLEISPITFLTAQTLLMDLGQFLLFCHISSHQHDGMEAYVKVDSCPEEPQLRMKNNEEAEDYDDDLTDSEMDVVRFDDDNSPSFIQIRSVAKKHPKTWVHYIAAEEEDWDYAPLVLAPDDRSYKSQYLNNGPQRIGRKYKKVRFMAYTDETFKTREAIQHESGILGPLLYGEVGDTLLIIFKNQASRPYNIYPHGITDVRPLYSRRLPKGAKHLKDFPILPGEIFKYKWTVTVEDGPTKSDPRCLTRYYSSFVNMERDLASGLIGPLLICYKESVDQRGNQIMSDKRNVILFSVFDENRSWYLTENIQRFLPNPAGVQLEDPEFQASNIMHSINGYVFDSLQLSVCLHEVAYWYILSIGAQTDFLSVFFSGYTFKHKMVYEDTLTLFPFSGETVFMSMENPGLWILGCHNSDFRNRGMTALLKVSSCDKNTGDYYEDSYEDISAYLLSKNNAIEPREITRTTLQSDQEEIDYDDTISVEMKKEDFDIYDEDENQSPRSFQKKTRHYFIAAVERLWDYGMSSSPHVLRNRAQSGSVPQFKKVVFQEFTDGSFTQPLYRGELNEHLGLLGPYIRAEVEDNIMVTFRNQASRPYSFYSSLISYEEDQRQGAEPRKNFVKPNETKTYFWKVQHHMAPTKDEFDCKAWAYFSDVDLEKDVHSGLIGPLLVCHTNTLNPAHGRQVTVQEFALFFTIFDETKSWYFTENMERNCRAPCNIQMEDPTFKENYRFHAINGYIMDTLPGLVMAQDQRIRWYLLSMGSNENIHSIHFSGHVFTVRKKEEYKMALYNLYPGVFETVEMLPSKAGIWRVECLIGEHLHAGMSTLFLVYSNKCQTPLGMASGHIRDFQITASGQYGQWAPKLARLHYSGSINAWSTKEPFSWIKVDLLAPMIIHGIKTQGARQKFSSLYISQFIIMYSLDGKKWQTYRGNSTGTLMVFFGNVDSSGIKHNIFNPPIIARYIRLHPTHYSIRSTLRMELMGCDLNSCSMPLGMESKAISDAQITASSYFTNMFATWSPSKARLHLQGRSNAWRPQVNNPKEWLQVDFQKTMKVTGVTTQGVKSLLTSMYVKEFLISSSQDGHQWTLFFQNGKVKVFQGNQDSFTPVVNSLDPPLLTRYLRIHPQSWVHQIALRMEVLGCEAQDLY
Sequence of B-domainless human factor VIII (human) (P00451 other isoform, or with tags, fused parts or gaps): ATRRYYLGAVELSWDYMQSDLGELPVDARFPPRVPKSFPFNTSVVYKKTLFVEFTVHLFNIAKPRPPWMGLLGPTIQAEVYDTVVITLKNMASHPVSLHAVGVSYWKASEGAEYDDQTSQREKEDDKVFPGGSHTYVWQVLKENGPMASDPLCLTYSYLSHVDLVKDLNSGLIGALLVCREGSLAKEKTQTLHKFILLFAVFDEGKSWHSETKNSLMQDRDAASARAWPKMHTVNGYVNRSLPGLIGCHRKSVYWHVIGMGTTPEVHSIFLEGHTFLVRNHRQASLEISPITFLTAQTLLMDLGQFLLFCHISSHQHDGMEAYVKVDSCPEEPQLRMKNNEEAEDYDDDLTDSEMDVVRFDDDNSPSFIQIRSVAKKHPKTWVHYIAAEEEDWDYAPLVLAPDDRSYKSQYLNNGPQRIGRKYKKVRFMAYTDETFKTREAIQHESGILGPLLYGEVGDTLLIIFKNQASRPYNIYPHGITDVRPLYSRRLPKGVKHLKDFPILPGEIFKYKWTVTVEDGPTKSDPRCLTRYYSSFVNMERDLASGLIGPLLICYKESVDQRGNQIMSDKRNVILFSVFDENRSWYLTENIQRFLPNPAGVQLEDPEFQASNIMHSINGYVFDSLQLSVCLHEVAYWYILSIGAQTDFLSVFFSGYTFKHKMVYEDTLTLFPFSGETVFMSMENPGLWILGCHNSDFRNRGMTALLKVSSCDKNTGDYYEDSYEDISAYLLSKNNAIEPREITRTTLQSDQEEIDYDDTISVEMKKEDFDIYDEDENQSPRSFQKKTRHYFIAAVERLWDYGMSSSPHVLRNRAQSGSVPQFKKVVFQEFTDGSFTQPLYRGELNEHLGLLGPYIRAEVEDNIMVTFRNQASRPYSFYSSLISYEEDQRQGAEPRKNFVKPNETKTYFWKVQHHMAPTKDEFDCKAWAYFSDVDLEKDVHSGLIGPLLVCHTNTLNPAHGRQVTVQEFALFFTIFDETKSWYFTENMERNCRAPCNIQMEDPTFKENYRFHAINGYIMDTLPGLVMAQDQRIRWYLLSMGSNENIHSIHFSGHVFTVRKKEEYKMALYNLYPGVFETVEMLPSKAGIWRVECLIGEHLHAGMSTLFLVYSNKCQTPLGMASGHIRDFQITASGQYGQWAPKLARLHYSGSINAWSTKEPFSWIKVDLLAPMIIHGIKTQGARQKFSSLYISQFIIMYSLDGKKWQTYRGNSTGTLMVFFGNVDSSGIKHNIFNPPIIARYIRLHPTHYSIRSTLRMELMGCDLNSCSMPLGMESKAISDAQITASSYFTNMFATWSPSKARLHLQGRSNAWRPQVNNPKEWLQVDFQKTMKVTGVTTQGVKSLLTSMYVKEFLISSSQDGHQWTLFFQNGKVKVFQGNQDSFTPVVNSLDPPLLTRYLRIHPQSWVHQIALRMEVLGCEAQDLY

Specific Activity (U/mg) of reconstituted hybrid fVIIIa, two-stage clotting assay at 1 hour [1]: 140000 U/mg | Specific Activity (U/mg) of reconstituted fVIIIa, two-stage clotting assay at 1 hour [2]: 70000 U/mg
Substance: porcine factor VIIIa A2 domain, isolated from porcine blood (from UniProt P12263 392-759)

Inhibition mAb413 (BU/mg IgG), Bethesda assay [3]: 1250 BU/mg IgG | % Reactivity relative to wild-type [4]: 6.7% | MAb413 titer (BU/mg), Bethesda assay [4]: 630 BU/mg | % Reactivity relative to wild-type [5]: 0.015% | MAb413 titer (BU/mg), Bethesda assay [5]: 1.6 BU/mg | Inhibition mAb413 (BU/mg IgG), Bethesda assay [6]: < 0.7 BU/mg IgG | % Reactivity relative to wild-type [7]: 42% | MAb413 titer (BU/mg), Bethesda assay [7]: 4000 BU/mg | % Reactivity relative to wild-type [8]: 1.7% | MAb413 titer (BU/mg), Bethesda assay [8]: 160 BU/mg | Inhibition mAb413 (BU/mg IgG), Bethesda assay [9]: 1450 BU/mg IgG | Inhibition mAb413 (BU/mg IgG), Bethesda assay [10]: 1170 BU/mg IgG | % Reactivity relative to wild-type [11]: 126% | MAb413 titer (BU/mg), Bethesda assay [11]: 11900 BU/mg | Inhibition mAb413 (BU/mg IgG), Bethesda assay [12]: < 0.7 BU/mg IgG | % Reactivity relative to wild-type [13]: 37% | MAb413 titer (BU/mg), Bethesda assay [13]: 3500 BU/mg | Inhibition mAb413 (BU/mg IgG), Bethesda assay [14]: < 0.7 BU/mg IgG | Inhibition mAb413 (BU/mg IgG), Bethesda assay [15]: 1470 BU/mg IgG | MAb413 titer (BU/mg), Bethesda assay [15]: 9400 BU/mg | % Reactivity relative to wild-type [16]: < 0.5% | reactivity to inhibitor relative to human factor VIII [16]: 0.2% | Inhibition mAb413 (BU/mg IgG), Bethesda assay [17]: < 0.7 BU/mg IgG | % Reactivity relative to wild-type [18]: 0.53% | MAb413 titer (BU/mg), Bethesda assay [18]: 50 BU/mg | % Reactivity relative to wild-type [19]: 113% | MAb413 titer (BU/mg), Bethesda assay [19]: 10700 BU/mg | Inhibition mAb413 (BU/mg IgG), Bethesda assay [20]: < 0.7 BU/mg IgG | % Reactivity relative to wild-type [21]: 60% | MAb413 titer (BU/mg), Bethesda assay [21]: 5620 BU/mg | Inhibition mAb413 (BU/mg IgG), Bethesda assay [22]: < 0.7 BU/mg IgG | Inhibition mAb413 (BU/mg IgG), Bethesda assay [23]: < 0.7 BU/mg IgG
Substance: mAb413, murine monoclonal inhibitory antibody specific for the A2 domain of factor VIII
